Laboratory results as given in US20210238276A1 (INTEGRAL MOLECULAR, published 2021).

Tests used:
Assay in all cases: flow cytometry, alanine-scan library in HEK-293T, with cytochalasin B
hsGLUT4 G65A = target: T1, hsGLUT4 G65A (human, UniProt P14672 1-509)
T1 sequence: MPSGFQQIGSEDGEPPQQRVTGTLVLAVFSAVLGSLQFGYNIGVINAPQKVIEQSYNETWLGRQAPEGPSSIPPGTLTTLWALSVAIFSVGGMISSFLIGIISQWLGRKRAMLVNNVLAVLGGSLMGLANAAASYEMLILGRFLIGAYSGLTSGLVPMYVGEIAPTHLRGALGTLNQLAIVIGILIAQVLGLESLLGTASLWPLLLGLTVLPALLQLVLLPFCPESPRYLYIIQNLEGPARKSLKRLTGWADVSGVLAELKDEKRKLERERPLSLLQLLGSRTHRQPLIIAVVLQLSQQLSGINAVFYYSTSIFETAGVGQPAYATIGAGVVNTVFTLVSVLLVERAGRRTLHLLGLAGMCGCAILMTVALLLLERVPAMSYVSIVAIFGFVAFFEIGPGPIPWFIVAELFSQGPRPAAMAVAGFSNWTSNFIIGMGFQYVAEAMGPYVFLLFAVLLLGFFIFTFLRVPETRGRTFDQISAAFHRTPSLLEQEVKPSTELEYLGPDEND
How it was run: (§1)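 HEK-293T cells expressing individual GLUT4 alanine mutants were stained 48 h post-transfection with anti-GLUT4 scFv MAbs (2 μg/ml), then biotinylated secondary and streptavidin-PerCP, and read by high-throughput flow cytometry. Where used, cytochalasin B (10 uM final) was given for 30 min before and during primary antibody staining.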

hsGLUT4 R265A = target: T2, hsGLUT4 R265A (human, UniProt P14672 1-509)
T2 sequence: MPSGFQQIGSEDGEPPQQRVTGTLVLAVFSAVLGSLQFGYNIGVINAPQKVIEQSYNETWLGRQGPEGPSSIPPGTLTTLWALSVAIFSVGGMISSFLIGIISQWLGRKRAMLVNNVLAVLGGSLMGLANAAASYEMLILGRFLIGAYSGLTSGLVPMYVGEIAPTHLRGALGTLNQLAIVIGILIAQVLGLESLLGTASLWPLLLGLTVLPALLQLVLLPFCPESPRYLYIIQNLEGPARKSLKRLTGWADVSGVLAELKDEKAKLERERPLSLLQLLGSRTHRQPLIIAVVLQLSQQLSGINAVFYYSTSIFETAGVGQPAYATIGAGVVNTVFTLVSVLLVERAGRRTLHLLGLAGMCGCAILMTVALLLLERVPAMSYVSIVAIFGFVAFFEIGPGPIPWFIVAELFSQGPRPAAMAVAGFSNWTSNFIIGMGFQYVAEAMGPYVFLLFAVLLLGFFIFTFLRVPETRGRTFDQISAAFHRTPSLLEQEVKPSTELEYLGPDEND
How it was run: as §1

hsGLUT4 F314A = target: T3, hsGLUT4 F314A (human, UniProt P14672 1-509)
T3 sequence: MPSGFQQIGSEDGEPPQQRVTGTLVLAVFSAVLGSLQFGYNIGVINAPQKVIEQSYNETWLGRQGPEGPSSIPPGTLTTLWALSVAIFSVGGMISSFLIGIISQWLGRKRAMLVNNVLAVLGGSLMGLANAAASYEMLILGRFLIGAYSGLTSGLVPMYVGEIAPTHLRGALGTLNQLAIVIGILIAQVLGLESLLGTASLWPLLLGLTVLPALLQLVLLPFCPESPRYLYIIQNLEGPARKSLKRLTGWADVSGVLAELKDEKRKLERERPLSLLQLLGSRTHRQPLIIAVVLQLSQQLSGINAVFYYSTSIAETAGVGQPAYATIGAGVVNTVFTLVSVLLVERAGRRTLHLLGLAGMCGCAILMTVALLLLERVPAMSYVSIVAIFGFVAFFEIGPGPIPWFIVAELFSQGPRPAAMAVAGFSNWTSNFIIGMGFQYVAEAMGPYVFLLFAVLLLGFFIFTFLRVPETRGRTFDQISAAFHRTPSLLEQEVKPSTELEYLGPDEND
How it was run: as §1

hsGLUT4 R169A = target: T4, hsGLUT4 R169A (human, UniProt P14672 1-509)
T4 sequence: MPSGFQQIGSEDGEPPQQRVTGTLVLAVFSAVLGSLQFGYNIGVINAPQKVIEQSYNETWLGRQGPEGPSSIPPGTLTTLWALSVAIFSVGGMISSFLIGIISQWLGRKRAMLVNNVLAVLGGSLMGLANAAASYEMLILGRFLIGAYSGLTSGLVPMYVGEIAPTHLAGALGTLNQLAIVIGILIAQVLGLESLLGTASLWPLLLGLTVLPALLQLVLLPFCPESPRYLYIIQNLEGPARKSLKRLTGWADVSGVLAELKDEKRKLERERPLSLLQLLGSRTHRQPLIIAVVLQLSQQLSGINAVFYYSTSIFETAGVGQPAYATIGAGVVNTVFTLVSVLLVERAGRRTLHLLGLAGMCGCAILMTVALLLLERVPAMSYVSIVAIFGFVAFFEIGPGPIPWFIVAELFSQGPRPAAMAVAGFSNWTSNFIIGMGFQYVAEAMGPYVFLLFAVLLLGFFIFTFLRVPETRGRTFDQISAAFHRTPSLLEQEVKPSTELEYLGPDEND
How it was run: as §1

% of binding to wild type GLUT4 (hsGLUT4 G65A): 95%
% of binding to wild type GLUT4 (hsGLUT4 R265A): -5%
% of binding to wild type GLUT4 (hsGLUT4 F314A): 23%
% of binding to wild type GLUT4 (hsGLUT4 R169A): 77%
B1: AB102 (Fc fusion)
scFv: ALTQPSSVSANLGGTVKITCSGGGSYGYGWYQQKSPGSAPVTVIYSNDQRPSDIPSRFSGSKSGSTATLTITGVRAEDEAIYYCGSTDSDYVGIFGAGTTLTVLGQSSRSSGGGGSSGGGGSAVTLDESGGGLQTPGGTLSLVCKASGFDFSSYATIWVRQAPGKGLEWVAGISGTGTGSSTGYAPAVKGRATISRDNGQSTVRLQLNNLRAEDTGSYFCAKSTGYGDSWIYPDSIDAWGHGTEVIVSS
notes: also called MAb AB102; not shown: Fc fragment of human IgG1, cloned in frame with the scFv
